Assay results: publication PMC3653949, “Dissection of Agonistic and Blocking Effects of CD200 Receptor Antibodies” (PLoS ONE, 2013)

Molecular target: T1, CD200R(1)-rCD4d3+4 (extracellular domains of mouse CD200R allele 1 fused to rat CD4 domains 3 and 4) (mouse, UniProt Q9ES57 26-238, biotin at the biotinylation site)
T1 construct: mouse CD200R, allele CD200R(1) of C57BL/6 mice, the two extracellular domains; also called mCD200R; CD200R(1) rCD4d3+d4; source: 293T cells, transfected (pEF-BOS), tissue culture supernatant concentrated and biotinylated
T1 sequence (looked up): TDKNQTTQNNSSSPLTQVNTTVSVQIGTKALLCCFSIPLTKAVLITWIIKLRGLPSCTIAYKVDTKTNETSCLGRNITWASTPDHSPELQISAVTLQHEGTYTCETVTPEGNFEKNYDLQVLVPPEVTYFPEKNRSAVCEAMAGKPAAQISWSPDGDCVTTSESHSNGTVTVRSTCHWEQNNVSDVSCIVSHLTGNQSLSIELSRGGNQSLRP
Assay: SPR; biotinylated CD200R(1)-rCD4d3+4, CD200R(2)-rCD4d3+4 and rCD4d3+4 from tissue culture supernatants immobilized on streptavidin coupled CM5 chip (726, 704, 681 RU); purified, gel filtered CD200-rCD4d3+4 (0.75 µM) passed over; BIAcore 3000, 25°C
Details: both partners purified

B1: mouse CD200-rCD4d3+4 (extracellular domains of mouse CD200 fused to rat CD4 domains 3 and 4) (ligand, UniProt O54901 31-232, looked up)
chain: QVEVVTQDERKALHTTASLRCSLKTSQEPLIVTWQKKKAVSPENMVTYSKTHGVVIQPAYKDRINVTELGLWNSSITFWNTTLEDEGCYMCLFNTFGSQKVSGTACLTLYVQPIVHLHYNYFEDHLNITCSATARPAPAISWKGTGTGIENSTESHFHSNGTTSVTSILRVKDPKTQVGKEVICQVLYLGNVIDYKQSLDKG
modifications: biotin at the biotinylation site (form put on streptavidin coated fluorescent beads)
notes: mouse CD200, extracellular domains; also called soluble CD200; soluble purified CD200; source: 293T cells, transfected (pEF-BOS), tissue culture supernatant concentrated and biotinylated (on beads); purified and gel filtered (SPR)
binding result: binds
